Laboratory results published in paper PMC3973321 (Nucleic Acids Research, 2014).

Molecular target: mitochondrial RNA polymerase (POLRMT), residues 42-1230 (human, UniProt O00411 42-1230)
Assay: ITC

mitochondrial RNA polymerase (POLRMT), residues 42-1230, sequence (O00411 42-1230): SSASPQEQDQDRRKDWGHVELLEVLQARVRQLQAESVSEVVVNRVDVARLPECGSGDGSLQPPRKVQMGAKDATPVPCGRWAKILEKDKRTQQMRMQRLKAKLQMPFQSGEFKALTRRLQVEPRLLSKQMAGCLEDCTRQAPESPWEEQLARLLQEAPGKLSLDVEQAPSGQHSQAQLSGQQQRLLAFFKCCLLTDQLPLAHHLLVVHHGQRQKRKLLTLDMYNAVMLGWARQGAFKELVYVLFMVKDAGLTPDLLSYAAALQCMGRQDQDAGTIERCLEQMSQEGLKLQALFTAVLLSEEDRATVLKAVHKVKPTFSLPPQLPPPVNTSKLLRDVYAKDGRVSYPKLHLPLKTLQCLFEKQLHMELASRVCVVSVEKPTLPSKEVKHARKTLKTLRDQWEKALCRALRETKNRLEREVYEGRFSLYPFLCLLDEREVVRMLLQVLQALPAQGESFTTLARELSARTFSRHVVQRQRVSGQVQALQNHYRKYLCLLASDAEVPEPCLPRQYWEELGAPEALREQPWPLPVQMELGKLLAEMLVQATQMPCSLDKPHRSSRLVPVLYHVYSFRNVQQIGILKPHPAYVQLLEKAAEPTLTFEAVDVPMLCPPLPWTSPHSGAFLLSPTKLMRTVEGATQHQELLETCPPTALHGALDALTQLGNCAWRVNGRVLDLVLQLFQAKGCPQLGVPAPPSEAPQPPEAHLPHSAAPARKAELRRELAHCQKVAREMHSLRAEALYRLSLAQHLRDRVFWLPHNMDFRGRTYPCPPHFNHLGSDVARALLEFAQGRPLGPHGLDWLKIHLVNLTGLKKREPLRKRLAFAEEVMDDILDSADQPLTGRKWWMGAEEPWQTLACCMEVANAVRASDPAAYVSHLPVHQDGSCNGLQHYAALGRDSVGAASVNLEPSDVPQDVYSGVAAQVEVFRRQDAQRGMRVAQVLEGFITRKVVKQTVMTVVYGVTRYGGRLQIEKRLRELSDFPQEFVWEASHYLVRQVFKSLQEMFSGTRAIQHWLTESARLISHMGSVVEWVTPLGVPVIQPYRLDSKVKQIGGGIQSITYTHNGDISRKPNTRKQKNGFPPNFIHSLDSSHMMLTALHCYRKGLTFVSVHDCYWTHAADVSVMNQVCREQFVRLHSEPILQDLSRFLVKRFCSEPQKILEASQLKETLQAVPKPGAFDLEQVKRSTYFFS

B1: TFAM, residues 43-246 (natural protein)
chain: SSVLASCPKKPVSSYLRFSKEQLPIFKAQNPDAKTTELIRRIAQRWRELPDSKKKIYQDAYRAEWQVYKEEISRFKEQLTPSQIMSLEKEIMDKHLKRKAMTKKKELTLLGKPKRPRSAYNVYVAERFQEAKGDSPQEKLKTVKENWKNLSDSEKELYIQHAKEDETRYHNEMKSWEEQMIEVGRKDLLRRTIKKQRKYGAEEC
For B1, the Kd was 4.6 µM and the dH was 11.1 kcal/mol.
